Experimental data: article doi:10.1101/2020.08.21.260711, “Eukaryotic translation initiation factor 5A and its hypusination play an important role in proliferation and differentiation of the human enteric protozoan parasite Entamoeba histolytica” (bioRxiv, 2020)

Target: T1, Entamoeba histolytica deoxyhypusine synthase 1 (EhDHS1) with the amino-terminal His-tag (E. histolytica, UniProt C4LXB8 1-331)
T1 sequence (looked up): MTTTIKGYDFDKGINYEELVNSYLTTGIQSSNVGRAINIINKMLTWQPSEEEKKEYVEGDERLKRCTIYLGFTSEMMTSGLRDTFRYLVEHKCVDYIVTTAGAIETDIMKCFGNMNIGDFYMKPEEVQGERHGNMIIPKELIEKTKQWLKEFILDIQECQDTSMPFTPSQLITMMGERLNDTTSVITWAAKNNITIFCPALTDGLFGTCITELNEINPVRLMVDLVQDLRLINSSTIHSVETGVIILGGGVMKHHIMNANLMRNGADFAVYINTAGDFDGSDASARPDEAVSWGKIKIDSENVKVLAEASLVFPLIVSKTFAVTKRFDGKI
Assay: cell-based or functional assay

B1: Entamoeba histolytica deoxyhypusine synthase 2 (EhDHS2) with the carboxyl-terminal S-tag (enzyme, E. histolytica, UniProt C4M2N7 1-336, looked up)
chain: MSITGEEFAKVTSKVLGESKEYKGEKCIGYDFDNGVDFNKVMEKMKYTGFQALNLGLCIEQVNEMRKNHAKIFLGMSSNIVSSGLREVIHYLVKNKFVDAIVVTAGGIEEDFIKTMHPTLLGDFYFKGKELYPNGYNRIGNLILPNSNYCEFEDWMDPLLLECLKEQNEHGVHWTPSKLVHKMGESINNESSIYYWAAKNNIPVFSPAITDGSIGDMIFFFSYKNEGLVLDLVQDVIKIDEMAFNAEKVGCLLVGAGIAKHHILNAMKRRGGCDYCAMLSTSIECDASDAGSEIAADRTKGFFKPECNPAKVIGDATILLPLIVASTFAQKEEPTK
notes: EhDHS2 gene amplified by PCR, stop codon removed, cloned into AatII-XhoI of pETDuet-EhDHS1; The stop codon was removed to fuse the gene with the C-terminal S-Tag of pETDuet; also called S-tag DHS2; EHI_006030; source: E. coli BL21 (DE3), coexpressed with EhDHS1 from pETDuet-EhDHS1/2, in lysate, then copurified on Ni2+-NTA; not shown: S-tag, C-terminal, kept
  DHS enzymatic activity (1,3-diaminopropane production) of coexpressed EhDHS1/EhDHS2 as compared to EhDHS1 alone, with EheIF5A1 or EheIF5A2 as substrates: > 2000 fold
